Results from IntAct's records for PubMed 24125847.

B1: Sarcoplasmic reticulum histidine-rich calcium-binding protein (Homo sapiens), P23327 (parent)
chain: MGHHRPWLHASVLWAGVASLLLPPAMTQQLRGDGLGFRNRNNSTGVAGLSEEASAELRHHLHSPRDHPDENKDVSTENGHHFWSHPDREKEDEDVSKEYGHLLPGHRSQDHKVGDEGVSGEEVFAEHGGQARGHRGHGSEDTEDSAEHRHHLPSHRSHSHQDEDEDEVVSSEHHHHILRHGHRGHDGEDDEGEEEEEEEEEEEEASTEYGHQAHRHRGHGSEEDEDVSDGHHHHGPSHRHQGHEEDDDDDDDDDDDDDDDDVSIEYRHQAHRHQGHGIEEDEDVSDGHHHRDPSHRHRSHEEDDNDDDDVSTEYGHQAHRHQDHRKEEVEAVSGEHHHHVPDHRHQGHRDEEEDEDVSTERWHQGPQHVHHGLVDEEEEEEEITVQFGHYVASHQPRGHKSDEEDFQDEYKTEVPHHHHHRVPREEDEEVSAELGHQAPSHRQSHQDEETGHGQRGSIKEMSHHPPGHTVVKDRSHLRKDDSEEEKEKEEDPGSHEEDDESSEQGEKGTHHGSRDQEDEEDEEEGHGLSLNQEEEEEEDKEEEEEEEDEERREERAEVGAPLSPDHSEEEEEEEEGLEEDEPRFTIIPNPLDRREEAGGASSEEESGEDTGPQDAQEYGNYQPGSLCGYCSFCNRCTECESCHCDEENMGEHCDQCQHCQFCYLCPLVCETVCAPGSYVDYFSSSLYQALADMLETPEP
partner: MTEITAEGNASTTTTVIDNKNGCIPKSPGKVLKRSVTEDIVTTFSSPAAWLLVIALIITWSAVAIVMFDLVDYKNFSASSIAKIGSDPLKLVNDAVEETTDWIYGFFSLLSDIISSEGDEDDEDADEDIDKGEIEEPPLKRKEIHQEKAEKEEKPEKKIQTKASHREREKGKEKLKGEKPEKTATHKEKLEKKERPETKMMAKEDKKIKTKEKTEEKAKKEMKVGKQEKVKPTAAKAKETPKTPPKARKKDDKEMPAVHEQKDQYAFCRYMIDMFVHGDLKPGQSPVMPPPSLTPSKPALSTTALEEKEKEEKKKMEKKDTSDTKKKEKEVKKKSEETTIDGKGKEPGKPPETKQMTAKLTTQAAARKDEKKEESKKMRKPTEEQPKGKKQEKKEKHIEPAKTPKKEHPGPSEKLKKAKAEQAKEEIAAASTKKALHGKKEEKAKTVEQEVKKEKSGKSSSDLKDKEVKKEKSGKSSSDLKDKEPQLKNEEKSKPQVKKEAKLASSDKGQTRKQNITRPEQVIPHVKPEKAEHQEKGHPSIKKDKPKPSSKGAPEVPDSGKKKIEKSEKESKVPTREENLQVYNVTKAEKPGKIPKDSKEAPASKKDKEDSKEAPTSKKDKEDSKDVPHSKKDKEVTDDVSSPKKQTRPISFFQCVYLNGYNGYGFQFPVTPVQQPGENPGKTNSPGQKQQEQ
B2: Sarcoplasmic reticulum histidine-rich calcium-binding protein (Homo sapiens), P23327 (parent)
chain: B1 chain
partner: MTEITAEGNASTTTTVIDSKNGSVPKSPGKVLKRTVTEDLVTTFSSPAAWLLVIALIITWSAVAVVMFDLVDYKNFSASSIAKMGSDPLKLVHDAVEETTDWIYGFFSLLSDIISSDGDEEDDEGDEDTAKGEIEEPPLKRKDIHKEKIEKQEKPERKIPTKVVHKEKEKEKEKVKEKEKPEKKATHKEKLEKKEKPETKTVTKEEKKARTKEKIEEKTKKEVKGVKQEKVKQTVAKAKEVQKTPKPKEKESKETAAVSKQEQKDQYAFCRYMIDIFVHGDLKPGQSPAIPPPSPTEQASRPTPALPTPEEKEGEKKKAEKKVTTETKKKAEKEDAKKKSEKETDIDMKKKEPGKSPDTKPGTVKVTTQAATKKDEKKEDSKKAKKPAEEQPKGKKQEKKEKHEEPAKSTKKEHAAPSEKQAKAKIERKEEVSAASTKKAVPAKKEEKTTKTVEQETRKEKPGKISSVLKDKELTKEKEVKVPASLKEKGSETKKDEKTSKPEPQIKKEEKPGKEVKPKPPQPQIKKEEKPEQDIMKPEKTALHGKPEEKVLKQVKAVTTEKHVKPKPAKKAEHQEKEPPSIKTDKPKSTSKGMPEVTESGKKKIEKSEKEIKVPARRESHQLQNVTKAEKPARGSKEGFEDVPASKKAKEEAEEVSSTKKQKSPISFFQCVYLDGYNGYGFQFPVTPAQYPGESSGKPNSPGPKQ

Variants of: B1
Details: with trdn_mouse Trdn

effect of a mutation on the interaction | Variant
decreasing interaction | S96A

Variants of: B2
Details: with trdn_rabit TRDN

effect of a mutation on the interaction | Variant
decreasing interaction | S96A
